Laboratory results taken from paper PMC7242879, “Exploring the Molecular Basis for Substrate Affinity and Structural Stability in Bacterial GH39 β-Xylosidases” (Frontiers in Bioengineering and Biotechnology, 2020).

System: O=[N+]([O-])c1ccc(O[C@@H]2OC[C@@H](O)[C@H](O)[C@H]2O)cc1
Assay: purified protein
Conditions: McIlvaine buffer 50 mM pH 5.5, 40 °C, 0.1–25 mM substrate, 13.6 μM enzyme, 15 min

Substance: XacXynB (Xanthomonas citri subsp. citri 306)
- Km: 1930 ± 250 µM
- kcat: 4.43 ± 0.142 s⁻¹
- kcat/Km: 2300 M⁻¹ s⁻¹
